# From patent US20240318218A1 (The Trustees of Columbia University in The City of New York, priority 2023, published 2024)
# T1: human NADK (Homo sapiens, UniProt O95544)
# T1 sequence (O95544 1-446): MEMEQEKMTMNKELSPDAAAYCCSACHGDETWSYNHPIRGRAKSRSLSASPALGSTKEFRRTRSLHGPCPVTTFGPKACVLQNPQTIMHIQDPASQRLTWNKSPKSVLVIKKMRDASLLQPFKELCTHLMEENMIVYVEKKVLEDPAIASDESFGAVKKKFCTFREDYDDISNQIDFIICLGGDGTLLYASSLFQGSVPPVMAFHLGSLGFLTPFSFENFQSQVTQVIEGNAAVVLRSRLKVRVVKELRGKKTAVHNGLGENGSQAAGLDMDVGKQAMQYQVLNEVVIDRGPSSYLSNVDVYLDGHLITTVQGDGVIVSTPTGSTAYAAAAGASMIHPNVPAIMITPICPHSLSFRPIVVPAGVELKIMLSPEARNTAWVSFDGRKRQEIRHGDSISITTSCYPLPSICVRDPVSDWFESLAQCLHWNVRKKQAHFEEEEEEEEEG
# T2: B. subtilis polyphosphate NAD+ kinase (PPNK), recombinant, 6x-histidine tag (Bacillus subtilis, UniProt O31612)
# T2 sequence (O31612 1-266): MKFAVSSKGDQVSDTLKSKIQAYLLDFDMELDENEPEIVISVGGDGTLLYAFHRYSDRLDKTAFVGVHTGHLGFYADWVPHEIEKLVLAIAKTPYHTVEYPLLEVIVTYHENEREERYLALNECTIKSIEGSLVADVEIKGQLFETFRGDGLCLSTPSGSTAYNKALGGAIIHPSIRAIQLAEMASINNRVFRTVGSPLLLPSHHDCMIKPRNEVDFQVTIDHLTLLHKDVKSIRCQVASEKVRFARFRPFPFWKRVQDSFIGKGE
# Tests used:
# [1] = biological target: T1, human NADK; conditions: cited from earlier work
# [2] = test system: ATP production; conditions: 1 mM fuel; cascade with ADH, formDH and FDH; polyphosphate; 200 μL
# Method: Exemplary cascades were tested with ADH and formDH. […] The cascade was tested in 200 μL reaction volumes.
# [3] = biological target: T2, B. subtilis polyphosphate NAD+ kinase (PPNK), recombinant, 6x-histidine tag; test: Kinetics of polyphosphate NAD+ kinase (PPNK), coupled to TPNOX, absorbance at 340 nm; conditions: 26° C., pH 7.8, 10 mM MgCl2, random bi-bi sequential
# Method: (§5) For overexpression, the enzymes were transformed into BL21(DE3) E. coli cells (New England Biolabs). […] Overexpression of the enzymes was induced by adding isopropyl-β-thiogalactopyranoside (IPTG) to a final concentration of 1 mM at an optical density (OD) of 0.6 at 600 nm. After 3 h of induction, the cells were harvested and sonicated in wash buffer A for TPNOX (10 mM imidazole, 300 mM NaCl, and 20 mM Tris-HCl pH 7.4) and wash buffer B for all other enzymes (40 mM imidazole, 300 mM NaCl, and 20 mM Tris-HCl pH 7.4). The cells were centrifuged at 7000 rpm for 1 h and 4° C. The protein was purified using a nickel-nitrilotriacetic acid (Ni-NTA) column with continuous elution up to 500 mM imidazole.
# (§6) The reaction was carried out at 26° C. in a solution containing 10 mM Tris-HCl, pH 7.8, 10 mM MgCl2, and 0.02 μg/μL TPNOX. […] A molar absorption coefficient of 6.22×10^4 mol^−1 cm^−1 was used to convert absorption to molar concentration of NADPH.
# [4] = substrate: O=CO; test: Kinetics of formate dehydrogenase (FDH); assay type: biochemical, C. boidinii; conditions: other: abbreviated sequential mechanism; pH 7.4; 37.0 °C
# Description: (§1) The enzymes involved in the cascade were characterized. Kinetic parameters for the NADH-dependent dehydrogenases, PPNKs, NADPH oxidases, and NADKs included in the exemplary embodiments of the present disclosure are shown in Table I below.
# (§2) The FDH from C. boidinii was expressed recombinantly in a pEt28a plasmid and purified according to the materials and methods.
# (§3) For overexpression, the enzymes were transformed into BL21(DE3) E. coli cells (New England Biolabs). Overnight cultures of BL21(DE3) E. coli cells harboring the DNA in pET20b plasmids and pET28a plasmid for FDH and sfGFP, respectively, were transferred into 50 mL of LB medium with 100 μg/mL ampicillin at 37° C. Overexpression of the enzymes was induced by adding isopropyl-β-thiogalactopyranoside (IPTG) to a final concentration of 1 mM at an optical density (OD) of 0.6 at 600 nm. After 3 h of induction, the cells were harvested and sonicated in wash buffer A for TPNOX (10 mM imidazole, 300 mM NaCl, and 20 mM Tris-HCl pH 7.4) and wash buffer B for all other enzymes (40 mM imidazole, 300 mM NaCl, and 20 mM Tris-HCl pH 7.4). The cells were centrifuged at 7000 rpm for 1 h and 4° C. The protein was purified using a nickel-nitrilotriacetic acid (Ni-NTA) column with continuous elution up to 500 mM imidazole.
# [5] = substrate: NC(=O)c1ccc[n+]([C@@H]2O[C@H](COP(=O)([O-])OP(=O)(O)OC[C@H]3O[C@@H](n4cnc5c(N)ncnc54)[C@H](O)[C@@H]3O)[C@@H](O)[C@H]2O)c1; test: Kinetics of formate dehydrogenase (FDH); assay type: biochemical, C. boidinii; conditions: other: abbreviated sequential mechanism; pH 7.4; 37.0 °C
# Description: as §1, §2, §3
# [6] = test system: NADK; test: Initial rate kinetic experiments with pigeon, duck, cat and human NADK enzymes, forward and reverse directions; assay type: biochemical; conditions: reverse direction (NADP^+ + ADP to NAD^+ + ATP); recombinant enzyme
# Method: Recombinantly-expressed NADKs were explored for their reversible activities. It was hypothesized that the reversibility of the pigeon enzyme would enable compensation for the high picolinic acid […] (PC) activity present in pigeon livers, which inhibits NAD^+ biosynthesis from dietary tryptophan. […] It was determined that human NADK has an affinity for NAD^+ that is about 600 times higher than the pigeon, duck and cat isoforms. Without wishing to be bound by theory, NAD^+ serves as a product inhibitor for the reverse human NADK activity, which accounts for the observed irreversible behavior. While each of the NADKs explored were “reversible,” the reverse activity of the human enzyme is impeded via product inhibition. […]
# (§4) Referring now to FIGS. 3A-3B, initial rate kinetic experiments were performed with pigeon, duck, cat, and human NADK enzymes in both the forward and reverse directions. […] In FIG. 3B, the production of ATP was detected in a coupled reaction with firefly luciferase where ATP was converted to light, the relative luminescence (RLU) was monitored, and a standard curve was used to calculate the ATP concentration.
# [7] = substrate: Nc1ncnc2c1ncn2[C@@H]1O[C@H](COP(=O)(O)OP(=O)(O)OP(=O)(O)O)[C@@H](O)[C@H]1O; test: purified protein, by the assay type; conditions: other: cosubstrate NADH, 26° C., pH 7.8, 10 mM MgCl2, random bi-bi sequential
# Method: as §5, §6
# [8] = substrate: NC(=O)C1=CN([C@@H]2O[C@H](COP(=O)(O)OP(=O)(O)OC[C@H]3O[C@@H](n4cnc5c(N)ncnc54)[C@H](O)[C@@H]3O)[C@@H](O)[C@H]2O)C=CC1; test: purified protein, by the assay type; conditions: 26° C., pH 7.8, 10 mM MgCl2, random bi-bi sequential, pH 7.8, 26.0 °C
# [9] = substrate: NC(=O)c1ccc[n+]([C@@H]2O[C@H](COP(=O)([O-])OP(=O)(O)OC[C@H]3O[C@@H](n4cnc5c(N)ncnc54)[C@H](OP(=O)(O)O)[C@@H]3O)[C@@H](O)[C@H]2O)c1; test: purified protein, by the assay type; conditions: other: reverse direction; random bi-bi sequential mechanism
# [10] = substrate: Nc1ncnc2c1ncn2[C@@H]1O[C@H](COP(=O)(O)OP(=O)(O)O)[C@@H](O)[C@H]1O; test: purified protein, by the assay type; assay type: biochemical, pigeon; conditions: other: reverse direction; random bi-bi sequential mechanism
# Description: The ATP-producing NADK has been predominantly studied in the forward direction (consuming ATP) since the observed isoforms, such as the human NADK, are irreversible. Without wishing to be bound by theory, one form, pigeon NADK, follows a random bi-bi sequential mechanism and the kinetic parameters for the reverse direction are found in Table I.
# Synthetic pigeon, duck, and cat NADK genes and a cloned human NADK gene all with C-terminal 6×-histidine tags were expressed E. coli and purified to apparent homogencity. The pigeon enzyme shares 85% sequence homology with the human enzyme, while the duck and pigeon enzymes are 96% sequence homology. The cat enzyme shares a 91% sequence homology to the human enzyme.
# as §4, with “concentration. […]” for “concentration.”
# ATP production was measured using firefly luciferase. […] The luminescence was measured in a plate reader in 26° C. in a solution containing 10 mM Tris-HCl, pH 7.8, and 10 mM MgCl2. The ATP produced was calculated from luminescence using a calibration plot. […]
molecule,measurement,setting,value
NC(=O)c1ccc[n+]([C@@H]2O[C@H](COP(=O)([O-])OP(=O)(O)OC[C@H]3O[C@@H](n4cnc5c(N)ncnc54)[C@H](OP(=O)(O)O)[C@@H]3O)[C@@H](O)[C@H]2O)c1 [NADP^+],inhibition of human NADK,[1],not
O=CO [formate],ATP production rate,[2],1.3×10^7 total RLU/h
NC(=O)C1=CN([C@@H]2O[C@H](COP(=O)(O)OP(=O)(O)OC[C@H]3O[C@@H](n4cnc5c(N)ncnc54)[C@H](O)[C@@H]3O)[C@@H](O)[C@H]2O)C=CC1 [NADH],inhibition of human NADK,[1],inhibited
same,kcat,[3]; substrates NADH and ATP,(2.6 ± 1.9) × 10^2 min^−1
same,kcat,[3]; substrates NADH and poly(P) (sodium metaphosphate),(5.6 ± 2.6) × 10^2 min^−1
NC(=O)C1=CN([C@@H]2O[C@H](COP(=O)(O)OP(=O)(O)OC[C@H]3O[C@@H](n4cnc5c(N)ncnc54)[C@H](OP(=O)(O)O)[C@@H]3O)[C@@H](O)[C@H]2O)C=CC1 [NADPH],inhibition of human NADK,[1],inhibited
CO [methanol],ATP production rate,[2],7.2×10^7 total RLU/h
"C. boidinii formate dehydrogenase (FDH), recombinant ([Candida] boidinii) (protein, made in house; host or cells: E. coli BL21(DE3)) MKIVLVLYDAGKHAADEEKLYGCTENKLGIANWLKDQGHELITTSDKEGETSELDKHIPDADIIITTPFHPAYITKERLDKAKNLKLVVVAGVGSDHIDLDYINQTGKKISVLEVTGSNVVSVAEHVVMTMLVLVRNFVPAHEQIINHDWEVAAIAKDAYDIEGKTIATIGAGRIGYRVLERLLPFNPKELLYYDYQALPKEAEEKVGARRVENIEELVAQADIVTVNAPLHAGTKGLINKELLSKFKKGAWLVNTARGAICVAEDVAAALESGQLRGYGGDVWFPQPAPKDHPWRDMRNKYGAGNAMTPHYSGTTLDAQTRYAEGTKNILESFFTGKFDYRPQDIILLNGEYVTKAYGKHDKK",Km,[4],4000 ± 60 µM
same,Km,[5],30 ± 2 µM
same,kcat,[5],(3.4 ± 0.1) × 10^2 min^−1
"human NADK: cloned human ATP-NAD^+ kinase with C-terminal 6×-histidine tag (protein, UniProt O95544 1-446, looked up) NAD kinase: MEMEQEKMTMNKELSPDAAAYCCSACHGDETWSYNHPIRGRAKSRSLSASPALGSTKEFRRTRSLHGPCPVTTFGPKACVLQNPQTIMHIQDPASQRLTWNKSPKSVLVIKKMRDASLLQPFKELCTHLMEENMIVYVEKKVLEDPAIASDESFGAVKKKFCTFREDYDDISNQIDFIICLGGDGTLLYASSLFQGSVPPVMAFHLGSLGFLTPFSFENFQSQVTQVIEGNAAVVLRSRLKVRVVKELRGKKTAVHNGLGENGSQAAGLDMDVGKQAMQYQVLNEVVIDRGPSSYLSNVDVYLDGHLITTVQGDGVIVSTPTGSTAYAAAAGASMIHPNVPAIMITPICPHSLSFRPIVVPAGVELKIMLSPEARNTAWVSFDGRKRQEIRHGDSISITTSCYPLPSICVRDPVSDWFESLAQCLHWNVRKKQAHFEEEEEEEEEG",reverse NADK activity,[6],no measurable activity in the reverse direction
"B. subtilis polyphosphate NAD+ kinase (PPNK), recombinant, 6x-histidine tag (Bacillus subtilis subsp. subtilis str. 168) (protein) MKFAVSSKGDQVSDTLKSKIQAYLLDFDMELDENEPEIVISVGGDGTLLYAFHRYSDRLDKTAFVGVHTGHLGFYADWVPHEIEKLVLAIAKTPYHTVEYPLLEVIVTYHENEREERYLALNECTIKSIEGSLVADVEIKGQLFETFRGDGLCLSTPSGSTAYNKALGGAIIHPSIRAIQLAEMASINNRVFRTVGSPLLLPSHHDCMIKPRNEVDFQVTIDHLTLLHKDVKSIRCQVASEKVRFARFRPFPFWKRVQDSFIGKGE",Km,[7],1400 ± 1110 µM
same,Km,[8]; other: cosubstrate ATP,1700 ± 1400 µM
same,Km,[8]; other: cosubstrate poly(P) (sodium metaphosphate),1200 ± 600 µM
"pigeon NADK (ATP-NAD+ kinase), recombinant, C-terminal 6x-histidine tag (Columba livia) (protein) MEMNRDKLCPGKADVSSDSAYHCSTCHDDEEWSNTSRGRAKSRSLSASPALGSTKEFRRTRSLHGPCPVTTFGPKACMLQNPKTIMHIQDPASQRLTWNKPPKSVLVIKKIRDASLLQPFKELCVYLTEENNMIVYVEKKVLEDPAIANDDNFGPVKKKFCTFREDYDDISNQIDFIICLGGDGTLLYASSLFQGSVPPVMAFHLGSLGFLTPFNFENFQSQVTQVIEGNAALVLRSRLKVKVVKEHREKTTVQNGIEENGVVSANIEKEVGKQIMQYQVLNEVVVDRGPSSYLSNVDVFLNGHLITTVQGDGVIVSTPTGSTAYAAAAGASMIHPNVPAIMITPICPHSLSFRPIVVPAGVELKIMLSPDARNTAWVSFDGRKRQEICHGDSISITTSCYPLPSICFRDPVSDWFESLAECLHWNVRKKQNNFAVEEEEF",Km,[9],730 ± 160 µM
same,kcat,[9],0.145 ± 0.06 s⁻¹
same,Km,[10],27000 ± 10000 µM
